Test results from PMC6265248.

Molecular target: C. reinhardtii Rubisco (CrRubisco), L8S8 holoenzyme (C. reinhardtii (endogenous in strain CC-2677)) (UniProt P00877)
Experiment: co-sedimentation; droplet sedimentation assay of demixed (phase-separated) EPYC1-Rubisco droplets, with microscopy: 10 µl reactions, 10 min, 20 mM Tris-HCl pH 8.0, 50 mM NaCl, room temperature, 21,100 x g, SDS-PAGE and densitometry of pellet and supernatant

stoichiometry N (EPYC1:Rubisco): 1 to 4
stoichiometry N (EPYC1 molecules per Rubisco holoenzyme): 2
Substance: Essential Pyrenoid Component 1 (EPYC1), residues 46-317 (natural protein)
